Measurements taken from the supplement of paper PMC11316812.
± gives the standard deviation of the averaged measurements.

What was measured:
hTERT-HMEC = assay: percentage of EdU-negative (G0-arrested) nuclei per well, 72 h; higher = more G0 arrest; settings: reference: sequence is the full UniProt precursor, the tested protein was the secreted form or ectodomain
MCF7 = assay: as above; settings: reference: sequence is the full UniProt precursor, the tested protein was the secreted form or ectodomain
[1] = protein concentration 0.0225 µM
[2] = protein concentration 0.010165 µM
[3] = protein concentration 0.10165 µM
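Note: secreted proteins added to cultured cells, EdU pulse at the end, nuclei found by Hoechst imaging, EdU status from nuclear versus surrounding ring intensity ratio, PBS as neutral control.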

Row | Sequence | percentage of EdU-negative (hTERT-HMEC; [1]) | percentage of EdU-negative (hTERT-HMEC; protein concentration 0.225 µM) | percentage of EdU-negative (MCF7; [1]) | percentage of EdU-negative (MCF7; protein concentration 0.225 µM) | percentage of EdU-negative (hTERT-HMEC; [2]) | percentage of EdU-negative (hTERT-HMEC; [3]) | percentage of EdU-negative (MCF7; [2]) | percentage of EdU-negative (MCF7; [3])
1 | MDLRDFYLLAALIACLRLDSAIAQELIYTIREELPENVPIGNIPKDLNISHINAATGTSASLVYRLVSKAGDAPLVKVSSSTGEIFTTSNRIDREKLCAGASYAEENECFFELEVVILPNDFFRLIKIKIIVKDTNDNAPMFPSPVINISIPENTLINSRFPIPSATDPDTGFNGVQHYELLNGQSVFGLDIVETPEGEKWPQLIVQQNLDREQKDTYVMKIKVEDGGTPQKSSTAILQVTVSDVNDNRPVFKEGQVEVHIPENAPVGTSVIQLHATDADIGSNAEIRYIFGAQVAPATKRLFALNNTTGLITVQRSLDREETAIHKVTVLASDGSSTPARATVTINVTDVNDNPPNIDLRYIISPINGTVYLSEKDPVNTKIALITVSDKDTDVNGKVICFIEREVPFHLKAVYDNQYLLETSSLLDYEGTKEFSFKIVASDSGKPSLNQTALVRVKLEDENDNPPIFNQPVIELSVSENNRRGLYLTTISATDEDSGKNADIVYQLGPNASFFDLDRKTGVLTASRVFDREEQERFIFTVTARDNGTPPLQSQAAVIVTVLDENDNSPKFTHNHFQFFVSENLPKYSTVGVITVTDADAGENKAVTLSILNDNDNFVLDPYSGVIKSNVSFDREQQSSYTFDVKATDGGQPPRSSTAKVTINVMDVNDNSPVVISPPSNTSFKLVPLSAIPGSVVAEVFAVDVDTGMNAELKYTIVSGNNKGLFRIDPVTGNITLEEKPAPTDVGLHRLVVNISDLGYPKSLHTLVLVFLYVNDTAGNASYIYDLIRRTMETPLDRNIGDSSQPYQNEDYLTIMIAIIAGAMVVIVVIFVTVLVRCRHASRFKAAQRSKQGAEWMSPNQENKQNKKKKRKKRKSPKSSLLNFVTIEESKPDDAVHEPINGTISLPAELEEQSIGRFDWGPAPPTTFKPNSPDLAKHYKSASPQPAFHLKPDTPVSVKKHHVIQELPLDNTFVGGCDTLSKRSSTSSDHFSASECSSQGGFKTKGPLHTRQCNSHSKSDNIPVTPQKCPSSTGFHIQENEESHYESQRRVTFHLPDGSQESCSDSGLGDHEPVGSGTLISHPLPLVQPQDEFYDQASPDKRTEADGNSDPNSDGPLGPRGLAEATEMCTQECLVLGHSDNCWMPPGLGPYQHPKSPLSTFAPQKEWVKKDKLVNGHTLTRAWKEDSNRNQFNDRKQYGSNEGHFNNGSHMTDIPLANLKSYKQAGGATESPKEHQL [Q9HC56] | 4.64 ± 0.43% | 13.4 ± 3.9% | 25.9 ± 2.1% | 32.9 ± 2.9% |  |  |  | 
2 | MASLRVERAGGPRLPRTRVGRPAALRLLLLLGAVLNPHEALAQPLPTTGTPGSEGGTVKNYETAVQFCWNHYKDQMDPIEKDWCDWAMISRPYSTLRDCLEHFAELFDLGFPNPLAERIIFETHQIHFANCSLVQPTFSDPPEDVLLAMIIAPICLIPFLITLVVWRSKDSEAQA | 4.96 ± 0.83% | 5.12 ± 0.077% | 26.4 ± 3.1% | 23.7 ± 0.28% |  |  |  | 
3 | MLGARLRLWVCALCSVCSMSVLRAYPNASPLLGSSWGGLIHLYTATARNSYHLQIHKNGHVDGAPHQTIYSALMIRSEDAGFVVITGVMSRRYLCMDFRGNIFGSHYFDPENCRFQHQTLENGYDVYHSPQYHFLVSLGRAKRAFLPGMNPPPYSQFLSRRNEIPLIHFNTPIPRRHTRSAEDDSERDPLNVLKPRARMTPAPASCSQELPSAEDNSPMASDPLGVVRGGRVNTHAGGTGPEGCRPFAKFI [Q9GZV9] |  |  |  |  | 4.81 ± 0.08% | 12.96 ± 0.081% | 24 ± 0.7% | 27.2 ± 0.45%
4 | MGHLSAPLHRVRVPWQGLLLTASLLTFWNPPTTAQLTTESMPFNVAEGKEVLLLVHNLPQQLFGYSWYKGERVDGNRQIVGYAIGTQQATPGPANSGRETIYPNASLLIQNVTQNDTGFYTLQVIKSDLVNEEATGQFHVYPELPKPSISSNNSNPVEDKDAVAFTCEPETQDTTYLWWINNQSLPVSPRLQLSNGNRTLTLLSVTRNDTGPYECEIQNPVSANRSDPVTLNVTYGPDTPTISPSDTYYRPGANLSLSCYAASNPPAQYSWLINGTFQQSTQELFIPNITVNNSGSYTCHANNSVTGCNRTTVKTIIVTELSPVVAKPQIKASKTTVTGDKDSVNLTCSTNDTGISIRWFFKNQSLPSSERMKLSQGNTTLSINPVKREDAGTYWCEVFNPISKNQSDPIMLNVNYNALPQENGLSPGAIAGIVIGVVALVALIAVALACFLHFGKTGRASDQRDLTEHKPSVSNHTQDHSNDPPNKMNEVTYSTLNFEAQQPTQPTSASPSLTATEIIYSEVKKQ | 5.04 ± 1.4% | 7.07 ± 0.44% | 24.7 ± 1.3% | 26.6 ± 0.95% |  |  |  | 
